Experimental data: IntAct's records for PubMed 14755250

B1: RING finger protein 11 (Homo sapiens), Q9Y3C5 (parent)
chain: MGNCLKSPTSDDISLLHESQSDRASFGEGTEPDQEPPPPYQEQVPVPVYHPTPSQTRLATQLTEEEQIRIAQRIGLIQHLPKGVYDPGRDGSEKKIRECVICMMDFVYGDPIRFLPCMHIYHLDCIDDWLMRSFTCPSCMEPVDAALLSSYETN
partner: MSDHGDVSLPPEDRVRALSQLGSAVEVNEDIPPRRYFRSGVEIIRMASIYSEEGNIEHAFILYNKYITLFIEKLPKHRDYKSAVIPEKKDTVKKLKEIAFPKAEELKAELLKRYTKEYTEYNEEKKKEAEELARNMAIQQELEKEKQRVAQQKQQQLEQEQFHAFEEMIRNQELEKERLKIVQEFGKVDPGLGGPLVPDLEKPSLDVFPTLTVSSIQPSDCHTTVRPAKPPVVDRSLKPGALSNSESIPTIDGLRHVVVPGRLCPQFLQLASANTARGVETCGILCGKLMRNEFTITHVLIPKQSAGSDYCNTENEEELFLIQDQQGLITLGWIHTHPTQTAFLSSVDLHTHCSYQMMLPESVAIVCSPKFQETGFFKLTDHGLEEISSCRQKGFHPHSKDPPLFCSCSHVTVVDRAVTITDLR

Variants of: B1
Settings: with stabp_human STAMBP

Row | Variant | effect of a mutation on the interaction
1 | MGNCLKSPTSDDISLLHESQSDRASFGEGTEPDQEPPPPYQEQVPVPVYHPTPSQTRLATQLTEEEQIRIAQRIGLIQHLPKGVYDPGRDGSEKKIREAVICMMDFVYGDPIRFLPCMHIYHLDCIDDWLMRSFTCPSCMEPVDAALLSSYETN [C99A] | decreasing interaction
